The source of these data is article PMC3569036 (FEBS letters, 2012).

The target in the test is calmodulin (vertebrate CaM amino acid sequence, encoded by a rat cDNA) (rat, UniProt P0DP29 1-149). In words: cryo-EM structure.

B1: bovine endothelial nitric oxide synthase (eNOS) with the phosphomimetic S1179D substitution (enzyme)
chain: MGNLKSVGQEPGPPCGLGLGLGLGLCGKQGPASPAPEPSRAPAPATPHAPDHSPAPNSPTLTRPPEGPKFPRVKNWELGSITYDTLCAQSQQDGPCTPRCCLGSLVLPRKLQTRPSPGPPPAEQLLSQARDFINQYYSSIKRSGSQAHEERLQEVEAEVASTGTYHLRESELVFGAKQAWRNAPRCVGRIQWGKLQVFDARDCSSAQEMFTYICNHIKYATNRGNLRSAITVFPQRAPGRGDFRIWNSQLVRYAGYRQQDGSVRGDPANVEITELCIQHGWTPGNGRFDVLPLLLQAPDEAPELFVLPPELVLEVPLEHPTLEWFAALGLRWYALPAVSNMLLEIGGLEFSAAPFSGWYMSTEIGTRNLCDPHRYNILEDVAVCMDLDTRTTSSLWKDKAAVEINLAVLHSFQLAKVTIVDHHAATVSFMKHLDNEQKARGGCPADWAWIVPPISGSLTPVFHQEMVNYILSPAFRYQPDPWKGSATKGAGITRKKTFKEVANAVKISASLMGTLMAKRVKATILYASETGRAQSYAQQLGRLFRKAFDPRVLCMDEYDVVSLEHEALVLVVTSTFGNGDPPENGESFAAALMEMSGPYNSSPRPEQHKSYKIRFNSVSCSDPLVSSWRRKRKESSNTDSAGALGTLRFCVFGLGSRAYPHFCAFARAVDTRLEELGGERLLQLGQGDELCGQEEAFRGWAKAAFQASCETFCVGEEAKAAAQDIFSPKRSWKRQRYRLSTQAEGLQLLPGLIHVHRRKMFQATVLSVENLQSSKSTRATILVRLDTAGQEGLQYQPGDHIGICPPNRPGLVEALLSRVEDPPPPTESVAVEQLEKGSPGGPPPSWVRDPRLPPCTLRQALTFFLDITSPPSPRLLRLLSTLAEEPSEQQELETLSQDPRRYEEWKWFRCPTLLEVLEQFPSVALPAPLLLTQLPLLQPRYYSVSSAPNAHPGEVHLTVAVLAYRTQDGLGPLHYGVCSTWLSQLKTGDPVPCFIRGAPSFRLPPDPYVPCILVGPGTGIAPFRGFWQERLHDIESKGLQPAPMTLVFGCRCSQLDHLYRDEVQDAQERGVFGRVLTAFSREPDSPKTYVQDILRTELAAEVHRVLCLERGHMFVCGDVTMATSVLQTVQRILATEGDMELDEAGDVIGVLRDQQRYHEDIFGLTLRTQEVTSRIRTQDFSLQERHLRGAVPWAFDPPGPDTPGP
As for B1, the binding result is given as “binds”.
